Laboratory results as given in patent US6936708, “Expression of Alfin 1 and methods for producing transgenic plants having increased root growth and root specific gene activation” (Arizona Board of Regents, acting for and on behalf of …).

T1: Alfin1 (Medicago sativa, UniProt Q40359 Q40359:1-257)
T1 sequence: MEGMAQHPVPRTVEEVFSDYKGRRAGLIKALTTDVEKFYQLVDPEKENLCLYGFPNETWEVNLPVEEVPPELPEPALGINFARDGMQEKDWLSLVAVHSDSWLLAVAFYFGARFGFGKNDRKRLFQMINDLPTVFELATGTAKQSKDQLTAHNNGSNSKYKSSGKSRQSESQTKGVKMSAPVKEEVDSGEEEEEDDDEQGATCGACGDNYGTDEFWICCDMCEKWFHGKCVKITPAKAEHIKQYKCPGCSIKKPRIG

B1: Alfin1 binding sequence SEQ 4 (dsDNA)
DNA 1: GACGCAAAGGGGGTGGGGACGGCGCTTTT
DNA 2: AAAAGCGCCGTCCCCACCCCCTTTGCGTC
B2: Alfin1 binding sequence SEQ 6 (dsDNA)
DNA 1: GACGGGTAGGGTGTGGGGGGTGTTTTATT
DNA 2: AATAAAACACCCCCCACACCCTACCCGTC
B3: Alfin1 binding sequence SEQ 9 (dsDNA)
DNA 1: GACGGCGGGAAGGAGTGTGGTAGAGAGCC
DNA 2: GGCTCTCTACCACACTCCTTCCCGCCGTC
B4: Alfin1 binding sequence SEQ 7 (dsDNA)
DNA 1: GACGGGGATAGGTGAGGTGGAGGGACAAT
DNA 2: ATTGTCCCTCCACCTCACCTATCCCCGTC
B5: Alfin1 binding sequence SEQ 8 (dsDNA)
DNA 1: GACGGCAGAAGGGAGAAACGTGGAGAATC
DNA 2: GATTCTCCACGTTTCTCCCTTCTGCCGTC
B6: Alfin1 binding sequence SEQ 10 (dsDNA)
DNA 1: GACGAAGGAAGGACGGCAGCGTGTTGC
DNA 2: GCAACACGCTGCCGTCCTTCCTTCGTC
B7: Alfin1 binding sequence SEQ 5 (dsDNA)
DNA 1: GACGCAAAGGGGGTGGGGACGGCGCTTTT
DNA 2: AAAAGCGCCGTCCCCACCCCCTTTGCGTC

Molecular target: T1, Alfin1
Test: DNA sequence that binds Alfin1 in vitro
Excerpt: (§1) To identify DNA sequences that are recognized by Alfin1 protein, the purified Alfin1 protein was used in the "random DNA binding" assay (See: Rauscher III F. J., Morris J. F., Tournay O. E., Cook D. M., Curran T. *Binding of the Wilm's tumor locus* zinc finger protein to the EGR-1 consensus sequence. Science, 1990; 250, 1259–1262) and the bound DNA purified by four rounds of PCR amplification and binding, followed by cloning of the isolated sequences.

Binding result, binds:
B1
B2
B3
B4
B5
B6

Molecular target: T1, Alfin1
Test: DNA sequence that binds Alfin1 in vitro; listed identical to SEQ 4
Excerpt: as §1

Binding result, binds:
B7
